Laboratory results from the Human Domainome abundance scans (Beltran et al. 2025).
± gives the uncertainty stated by the source.

B1: E3 ubiquitin-protein ligase Midline-1, residues 172 to 214; numbered along this chain, O15344 (parent)
chain: GLMCLEHEDEKVNMYCVTDDQLICALCKLVGRHRDHQVAALSE

Variants of: B1
Assay: abundance fitness (aPCA) (normalised: wild type 0, dead -1); higher = more abundant; growth selection in yeast, the domain comes from the species named
Conditions: Homo sapiens

Q: Which abundance fitness does the source give for GLMCLEHEDMKVNMYCVTDDQLICALCKLVGRHRDHQVAALSE here?
A: The abundance fitness was -0.029 ± 0.097.

Q: For GLMCLEHEDSKVNMYCVTDDQLICALCKLVGRHRDHQVAALSE, which abundance fitness is on record?
A: Its abundance fitness is -0.079 ± 0.098.

Q: With GLMCLEHEDWKVNMYCVTDDQLICALCKLVGRHRDHQVAALSE as the variant, how does the abundance fitness read?
A: The abundance fitness was -0.247 ± 0.062.

Q: For GLMCLEHEDQKVNMYCVTDDQLICALCKLVGRHRDHQVAALSE, which abundance fitness is on record?
A: The abundance fitness was -0.181 ± 0.072.

Q: With GLMCLEHEDDKVNMYCVTDDQLICALCKLVGRHRDHQVAALSE as the variant, how does the abundance fitness read?
A: The abundance fitness was -0.164 ± 0.12.

Q: Which abundance fitness does the source give for GLMCLEHEDAKVNMYCVTDDQLICALCKLVGRHRDHQVAALSE here?
A: The abundance fitness was -0.133 ± 0.059.

Q: With GLMCLEHEDTKVNMYCVTDDQLICALCKLVGRHRDHQVAALSE as the variant, how does the abundance fitness read?
A: The abundance fitness was -0.204 ± 0.15.

Q: Which abundance fitness does the source give for GLMCLEHEDGKVNMYCVTDDQLICALCKLVGRHRDHQVAALSE here?
A: Its abundance fitness is -0.316 ± 0.047.

Q: With GLMCLEHEDNKVNMYCVTDDQLICALCKLVGRHRDHQVAALSE as the variant, how does the abundance fitness read?
A: The abundance fitness was 0.093 ± 0.21.

Q: For GLMCLEHEDHKVNMYCVTDDQLICALCKLVGRHRDHQVAALSE, which abundance fitness is on record?
A: Its abundance fitness is 0.066 ± 0.16.

Q: With GLMCLEHEDRKVNMYCVTDDQLICALCKLVGRHRDHQVAALSE as the variant, how does the abundance fitness read?
A: Its abundance fitness is -0.046 ± 0.049.

Q: With GLMCLEHEDKKVNMYCVTDDQLICALCKLVGRHRDHQVAALSE as the variant, how does the abundance fitness read?
A: Its abundance fitness is 0.063 ± 0.087.

Q: Which abundance fitness does the source give for GLMCLEHEDPKVNMYCVTDDQLICALCKLVGRHRDHQVAALSE here?
A: Its abundance fitness is -0.498 ± 0.19.

Q: For GLMCLEHEDVKVNMYCVTDDQLICALCKLVGRHRDHQVAALSE, which abundance fitness is on record?
A: Its abundance fitness is -0.414 ± 0.059.

Q: For GLMCLEHEDFKVNMYCVTDDQLICALCKLVGRHRDHQVAALSE, which abundance fitness is on record?
A: Its abundance fitness is -0.136 ± 0.16.

Q: With GLMCLEHEDCKVNMYCVTDDQLICALCKLVGRHRDHQVAALSE as the variant, how does the abundance fitness read?
A: Its abundance fitness is -0.062 ± 0.074.

Q: Which abundance fitness does the source give for GLMCLEHEDLKVNMYCVTDDQLICALCKLVGRHRDHQVAALSE here?
A: Its abundance fitness is -0.214 ± 0.061.

Q: With GLMCLEHEDEKVYMYCVTDDQLICALCKLVGRHRDHQVAALSE as the variant, how does the abundance fitness read?
A: Its abundance fitness is -0.108 ± 0.16.

Q: Which abundance fitness does the source give for GLMCLEHEDEKVRMYCVTDDQLICALCKLVGRHRDHQVAALSE here?
A: The abundance fitness was -0.137 ± 0.049.

Q: With GLMCLEHEDEKVLMYCVTDDQLICALCKLVGRHRDHQVAALSE as the variant, how does the abundance fitness read?
A: The abundance fitness was -0.254 ± 0.077.

Q: With GLMCLEHEDEKVAMYCVTDDQLICALCKLVGRHRDHQVAALSE as the variant, how does the abundance fitness read?
A: The abundance fitness was -0.146 ± 0.055.

Q: For GLMCLEHEDEKVGMYCVTDDQLICALCKLVGRHRDHQVAALSE, which abundance fitness is on record?
A: The abundance fitness was -0.022 ± 0.045.

Q: For GLMCLEHEDEKVVMYCVTDDQLICALCKLVGRHRDHQVAALSE, which abundance fitness is on record?
A: The abundance fitness was -0.396 ± 0.055.

Q: With GLMCLEHEDEKVEMYCVTDDQLICALCKLVGRHRDHQVAALSE as the variant, how does the abundance fitness read?
A: The abundance fitness was -0.084 ± 0.063.

Q: With GLMCLEHEDEKVQMYCVTDDQLICALCKLVGRHRDHQVAALSE as the variant, how does the abundance fitness read?
A: Its abundance fitness is 0.005 ± 0.078.

Q: With GLMCLEHEDEKVFMYCVTDDQLICALCKLVGRHRDHQVAALSE as the variant, how does the abundance fitness read?
A: The abundance fitness was 0.354 ± 0.19.

Q: Which abundance fitness does the source give for GLMCLEHEDEKVCMYCVTDDQLICALCKLVGRHRDHQVAALSE here?
A: The abundance fitness was -0.13 ± 0.1.

Q: With GLMCLEHEDEKVPMYCVTDDQLICALCKLVGRHRDHQVAALSE as the variant, how does the abundance fitness read?
A: The abundance fitness was -0.567 ± 0.28.

Q: With GLMCLEHEDEKVDMYCVTDDQLICALCKLVGRHRDHQVAALSE as the variant, how does the abundance fitness read?
A: Its abundance fitness is -0.071 ± 0.092.

Q: Which abundance fitness does the source give for GLMCLEHEDEKVTMYCVTDDQLICALCKLVGRHRDHQVAALSE here?
A: The abundance fitness was -0.043 ± 0.11.

Q: With GLMCLEHEDEKVKMYCVTDDQLICALCKLVGRHRDHQVAALSE as the variant, how does the abundance fitness read?
A: The abundance fitness was 0.04 ± 0.071.

Q: Which abundance fitness does the source give for GLMCLEHEDEKVSMYCVTDDQLICALCKLVGRHRDHQVAALSE here?
A: Its abundance fitness is -0.345 ± 0.095.

Q: For GLMCLEHETEKVNMYCVTDDQLICALCKLVGRHRDHQVAALSE, which abundance fitness is on record?
A: Its abundance fitness is -0.24 ± 0.12.

Q: Which abundance fitness does the source give for GLMCLEHEPEKVNMYCVTDDQLICALCKLVGRHRDHQVAALSE here?
A: Its abundance fitness is -0.088 ± 0.18.

Q: Which abundance fitness does the source give for GLMCLEHENEKVNMYCVTDDQLICALCKLVGRHRDHQVAALSE here?
A: Its abundance fitness is 0.636 ± 0.22.

Q: Which abundance fitness does the source give for GLMCLEHEEEKVNMYCVTDDQLICALCKLVGRHRDHQVAALSE here?
A: Its abundance fitness is -0.378 ± 0.087.

Q: For GLMCLEHEIEKVNMYCVTDDQLICALCKLVGRHRDHQVAALSE, which abundance fitness is on record?
A: Its abundance fitness is 0.042 ± 0.095.

Q: Which abundance fitness does the source give for GLMCLEHEAEKVNMYCVTDDQLICALCKLVGRHRDHQVAALSE here?
A: Its abundance fitness is -0.418 ± 0.067.

Q: With GLMCLEHEQEKVNMYCVTDDQLICALCKLVGRHRDHQVAALSE as the variant, how does the abundance fitness read?
A: Its abundance fitness is 0.116 ± 0.065.

Q: For GLMCLEHEHEKVNMYCVTDDQLICALCKLVGRHRDHQVAALSE, which abundance fitness is on record?
A: Its abundance fitness is -0.107 ± 0.18.

Q: For GLMCLEHEWEKVNMYCVTDDQLICALCKLVGRHRDHQVAALSE, which abundance fitness is on record?
A: Its abundance fitness is -0.052 ± 0.055.

Q: For GLMCLEHEKEKVNMYCVTDDQLICALCKLVGRHRDHQVAALSE, which abundance fitness is on record?
A: Its abundance fitness is -0.38 ± 0.1.

Q: With GLMCLEHEMEKVNMYCVTDDQLICALCKLVGRHRDHQVAALSE as the variant, how does the abundance fitness read?
A: Its abundance fitness is 0.246 ± 0.072.

Q: With GLMCLEHEVEKVNMYCVTDDQLICALCKLVGRHRDHQVAALSE as the variant, how does the abundance fitness read?
A: The abundance fitness was -0.086 ± 0.049.

Q: Which abundance fitness does the source give for GLMCLEHEGEKVNMYCVTDDQLICALCKLVGRHRDHQVAALSE here?
A: Its abundance fitness is 0.031 ± 0.045.

Q: For GLMCLEHELEKVNMYCVTDDQLICALCKLVGRHRDHQVAALSE, which abundance fitness is on record?
A: Its abundance fitness is 0.084 ± 0.054.

Q: With GLMCLEHEYEKVNMYCVTDDQLICALCKLVGRHRDHQVAALSE as the variant, how does the abundance fitness read?
A: Its abundance fitness is -0.113 ± 0.22.

Q: Which abundance fitness does the source give for GLMCLEHECEKVNMYCVTDDQLICALCKLVGRHRDHQVAALSE here?
A: The abundance fitness was 0.13 ± 0.08.

Q: Which abundance fitness does the source give for GLMCLEHESEKVNMYCVTDDQLICALCKLVGRHRDHQVAALSE here?
A: The abundance fitness was 0.02 ± 0.059.

Q: Which abundance fitness does the source give for GLMCLEHEREKVNMYCVTDDQLICALCKLVGRHRDHQVAALSE here?
A: Its abundance fitness is 0.027 ± 0.049.

Q: For GLMCLEHEFEKVNMYCVTDDQLICALCKLVGRHRDHQVAALSE, which abundance fitness is on record?
A: Its abundance fitness is 0.173 ± 0.11.

Q: Which abundance fitness does the source give for GLMCLEHEDEKFNMYCVTDDQLICALCKLVGRHRDHQVAALSE here?
A: The abundance fitness was 0.301 ± 0.3.

Q: With GLMCLEHEDEKPNMYCVTDDQLICALCKLVGRHRDHQVAALSE as the variant, how does the abundance fitness read?
A: The abundance fitness was -0.51 ± 0.34.

Q: With GLMCLEHEDEKRNMYCVTDDQLICALCKLVGRHRDHQVAALSE as the variant, how does the abundance fitness read?
A: The abundance fitness was 0.024 ± 0.059.

Q: Which abundance fitness does the source give for GLMCLEHEDEKMNMYCVTDDQLICALCKLVGRHRDHQVAALSE here?
A: The abundance fitness was -0.042 ± 0.12.

Q: Which abundance fitness does the source give for GLMCLEHEDEKINMYCVTDDQLICALCKLVGRHRDHQVAALSE here?
A: The abundance fitness was 0.093 ± 0.17.

Q: With GLMCLEHEDEKLNMYCVTDDQLICALCKLVGRHRDHQVAALSE as the variant, how does the abundance fitness read?
A: Its abundance fitness is -0.233 ± 0.11.

Q: Which abundance fitness does the source give for GLMCLEHEDEKKNMYCVTDDQLICALCKLVGRHRDHQVAALSE here?
A: The abundance fitness was 0.319 ± 0.14.

Q: For GLMCLEHEDEKQNMYCVTDDQLICALCKLVGRHRDHQVAALSE, which abundance fitness is on record?
A: Its abundance fitness is 0.328 ± 0.2.
